Reference: US20240083986A1 (published 2024)

T1: Celery (Api g 1, MyBiosource, Cat #MBS1171376) (Celery, UniProt P49372 1-154, limits assumed)
T1 construct: Bought reagent
T1 sequence (looked up): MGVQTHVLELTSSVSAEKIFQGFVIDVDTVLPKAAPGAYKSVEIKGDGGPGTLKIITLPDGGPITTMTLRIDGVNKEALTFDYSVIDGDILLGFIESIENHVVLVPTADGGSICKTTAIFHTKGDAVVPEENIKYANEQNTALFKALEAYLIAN

T2: European Hornbeam (Car b 1 isoform 1A & 1B, MyBiosource, Cat #MBS1200018) (European Hornbeam, UniProt P38949 2-160)
T2 construct: Bought reagent
T2 sequence (looked up): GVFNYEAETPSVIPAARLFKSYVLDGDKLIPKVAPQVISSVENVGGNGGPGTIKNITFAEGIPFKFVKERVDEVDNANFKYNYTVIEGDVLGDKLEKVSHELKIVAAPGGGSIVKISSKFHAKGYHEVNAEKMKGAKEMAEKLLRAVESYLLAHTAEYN

T3: CHO produced recombinant Bet v 1 containing a S85A mutation with a C-terminal myc-myc hexahistidine tag … (Betula verrucosa (birch))
T3 chain: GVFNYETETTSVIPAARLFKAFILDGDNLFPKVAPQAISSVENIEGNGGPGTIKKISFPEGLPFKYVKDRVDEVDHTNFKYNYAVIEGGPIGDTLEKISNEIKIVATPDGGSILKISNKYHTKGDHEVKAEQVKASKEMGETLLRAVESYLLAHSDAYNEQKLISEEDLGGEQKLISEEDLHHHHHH

T4: European Hornbeam (Car b 1 isoform 2, MyBiosource, Cat #MBS1043940) (European Hornbeam, UniProt P38950 2-160, limits assumed)
T4 construct: Bought reagent
T4 sequence (looked up): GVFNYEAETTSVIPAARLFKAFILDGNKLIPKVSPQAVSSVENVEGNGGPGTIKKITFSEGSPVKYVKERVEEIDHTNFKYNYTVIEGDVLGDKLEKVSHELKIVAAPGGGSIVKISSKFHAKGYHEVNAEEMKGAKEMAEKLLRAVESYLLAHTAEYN

T5: Apple (Mal d 1, MyBiosource, Cat #MBS1224919) (Apple, UniProt P43211 2-159, limits assumed)
T5 construct: Bought reagent
T5 sequence (looked up): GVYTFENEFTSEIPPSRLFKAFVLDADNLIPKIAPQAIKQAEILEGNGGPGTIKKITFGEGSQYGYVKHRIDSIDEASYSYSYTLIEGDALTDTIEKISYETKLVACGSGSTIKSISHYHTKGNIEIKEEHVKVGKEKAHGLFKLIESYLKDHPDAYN

T6: Alder (Aln g 1, MyBiosource, Cat #MBS1041484) (Alder, UniProt P38948 2-160, limits assumed)
T6 construct: Bought reagent
T6 sequence (looked up): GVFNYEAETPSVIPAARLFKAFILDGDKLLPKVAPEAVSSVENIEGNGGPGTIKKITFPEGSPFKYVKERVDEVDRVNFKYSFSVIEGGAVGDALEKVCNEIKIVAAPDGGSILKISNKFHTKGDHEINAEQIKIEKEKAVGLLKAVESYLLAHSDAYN

B1: H4H17001P (antibody, human IgG4, V domains shown)
VH: QVQLVESGGGLVKPGGSLRLSCAASGFTFSDYYMNWIRQAPGKGLEWISLISSSGSAIYYSDSVKGRFTISRDNARKSLYLQVNSLRAEDTAVYYCARDRGEWALGAYYYGLDVWGQGTTVTVSS
VL: DIVMTQSPLSLPVTPGEPASISCRSSQSLLHSDGYNYLDWYLQKSGQSPQLLIYLGSNRASGVPDRFSGSGSGTDFTLKISRMEAEDVGVYYCMQALQTPYTFGQGTKLEIK
notes: Fully human antibody with human IgG4 Fc (H4H prefix)
B2: H4H16987P (antibody, human IgG4 S228P, kappa, V domains shown)
VH: EVQLVESGGGLVQPGGSLRLSCAASGFTVSSNSMSWVRQAPGEGLEWVSVIFSGGITYYSDSVKGRFTISRHNSKNTLYLQMNSLRTEDTAVYYCARHSNWNFDAFDIWGQGTMVTVSS
VL: DIQMTQSPSSLSASVGDRVTITCRASQSFDTYLNWYQQKPGKAPNLLIYATSSLQSGVPSRFSGSGSGTDFTLTISSLQPEDFGTYYCQQSYSIPYTFGQGTKLEIKR
notes: human IgG4 Fc; also called MAB4
B3: H4H17015P (antibody, human IgG4, V domains shown)
VH: QVQLQESGPGLVKPSQTLSLTCTVSGGSISSADHYWSWIRQQPGKGLEWIGYISYRGTTYYNPTLESRVSISVDTFKNQFSLMLHSVTVADTAVYYCAKVLQGLVRFRDYGFDVWGQGTTVTVSS
VL: DIQLTQSPPFLSASVGDRVTITCWASQDISSYLAWYQQNPGKSPKLLIYDAFTLHTGVPSRFSGSGSGTEFTLTISSLQPEDFATFYCQHLYSFPFTFGPGTKVDIK
notes: as for B1
B4: H4H16991P (antibody, human IgG4, V domains shown)
VH: QVQLVQSGAEVRKPGASVKVSCKASGYTFTGYYLHWVRQAPGQGLEWMGLINPNTGGTNFAQKFQGRVTMTRDSSISAAYMELSRLRSDDTAVYYCARQHWNRYFDNWGQGTLVTVSS
VL: DIQMTQSPSTLSASVGDRVTITCRASQSVGNWLAWYQQKPGKAPKLLIQEASSIESGVPSRFSGSGSGTEFTLIVSSLQPDDFATYYCQQYNSYSWTFGHGTKVEIK
notes: as for B1
B5: H4H16979P (antibody, human IgG4, V domains shown)
VH: QVQLVQSGAEVKKPGASVKVSCKASGYTFIAYYLHWVRQAPGQGLEWMGLLNPYTGGSYYTQKFQGRVTMTRDTSIDTAYMELNSLRSDDTAIYYCARDKRSYYIPYAFEIWGQGTMVTVSS
VL: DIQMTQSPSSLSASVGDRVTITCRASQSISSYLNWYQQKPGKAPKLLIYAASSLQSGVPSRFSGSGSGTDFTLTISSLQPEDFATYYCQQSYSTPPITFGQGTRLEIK
notes: as for B1
B6: H4H17027P (antibody, human IgG4, V domains shown)
VH: EVQLVESGGGLVQPGGSLRLSCAASGFTFRNYAMHWVRQAPGEGLEWVAAIYRNSDSIDYADSVKGRFTISRDNAKNSLYLQMNSLKTEDTALYYCAKDEGFLEYFDSWGQGTLVTVSS
VL: EIVLTQSPGTLSLSPGERASLSCRASQSVSSSFLAWYQQKPGQAPRLLIYGVSSRFIGIPDRFSGGGSGTDFTLTITRLEPEDFAVYYCQQYGRSPWTFGQGTKVEIK
notes: as for B1

biological target: T1, Celery (Api g 1, MyBiosource, Cat …); test: SPR, mAb captured via anti-hFc, 25 C
Method: (§1) Equilibrium dissociation constants (KD) for different related allergens binding to purified anti-Bet v 1 monoclonal antibodies were determined using a real-time surface plasmon resonance biosensor (SPR-Biacore) on a Biacore 4000 instrument. All binding studies were performed in 10 mM HEPES, 150 mM NaCl, 3 mM EDTA, and 0.05% v/v surfactant Tween-20, pH 7.4 (HBS-ET) running buffer at 25° C. […] Binding studies were performed on the following related allergens: Alder (Aln g 1, MyBiosource, Cat #MBS1041484), Apple (Mal d 1, MyBiosource, Cat #MBS1224919), Carrot (Dau c 1.2, MyBiosource, Cat #MBS1212920), Celery (Api g 1, MyBiosource, Cat #MBS1171376), Celery (Api g 2, MyBiosource, Cat #MBS1047880), European Hornbeam (Car b 1 isoform 1A & 1B, MyBiosource, Cat #MBS1200018), European Hornbeam (Car b 1 isoform 2, MyBiosource, Cat #MBS1043940), Hazel (Cor A 1, MyBiosource, Cat #MBS5304600), and White Oak (Que a 1, MyBiosource, Cat #MBS1258822). […] Association (kₐ) and dissociation (kd) rate constants were determined by fitting the real-time binding sensorgrams to a 1:1 binding model with mass transport limitation using Scrubber 2.0c curve-fitting software. Binding dissociation equilibrium constants (KD) and dissociative half-lives (t½) were calculated from the kinetic rate constants as:

| 100 nM Analyte Bound (RU) | binding result | Binder |
| --- | --- | --- |
| -1 RU |  | B1 |
| 1 RU | no binding (tested: 100 nM) | B2 |
| 0 RU | no binding (tested: 100 nM) | B3 |
| 0 RU | no binding (tested: 100 nM) | B4 |
| 0 RU | no binding (tested: 100 nM) | B5 |
| 0 RU | no binding (tested: 100 nM) | B6 |

biological target: T2, European Hornbeam (Car b 1 isoform 1A & …); test: SPR, mAb captured via anti-hFc, 25 C
Method: as §1

| 100 nM Analyte Bound (RU) | binding result | Kd | koff | kon | t½ | Binder |
| --- | --- | --- | --- | --- | --- | --- |
| 0 RU | no binding (tested: 100 nM) |  |  |  |  | B1 |
| 0 RU | no binding (tested: 100 nM) |  |  |  |  | B2 |
| 0 RU | no binding (tested: 100 nM) |  |  |  |  | B3 |
| 1 RU | no binding (tested: 100 nM) |  |  |  |  | B4 |
| 1 RU | no binding (tested: 100 nM) |  |  |  |  | B5 |
| 41 RU |  | 214 nM | 0.00673 s⁻¹ | 31400 M⁻¹ s⁻¹ | 1.7 min | B6 |

Biological target: T3, CHO produced recombinant Bet v 1 …
Test: SPR, mAb captured via anti-hFc, 37 C
Method: (§2) Equilibrium dissociation constants (KD) for natural Bet v 1 binding to purified anti-Bet v 1 monoclonal antibodies were determined using a real-time surface plasmon resonance biosensor (SPR-Biacore) on a Biacore 4000 instrument. All binding studies were performed in 10 mM HEPES, 150 mM NaCl, 3 mM EDTA, and 0.05% v/v surfactant Tween-20, pH 7.4 (HBS-ET) running buffer at 25° C. and 37° C. […] Association (kₐ) and dissociation (kd) rate constants were determined by fitting the real-time binding sensorgrams to a 1:1 binding model with mass transport limitation using Scrubber 2.0c curve-fitting software. Binding dissociation equilibrium constants (KD) and dissociative half-lives (t½) were calculated from the kinetic rate constants as:

| 100 nM natural Bet v 1-MHH Bound (RU) | Kd | koff | kon | t½ | Binder |
| --- | --- | --- | --- | --- | --- |
| 2 RU |  |  |  |  | B1 |
| 36 RU | 106 nM | 0.0847 s⁻¹ | 795000 M⁻¹ s⁻¹ | 0.14 min | B2 |
| 89 RU | 2.02 nM | 0.000899 s⁻¹ | 445000 M⁻¹ s⁻¹ | 13 min | B3 |
| 67 RU | 1.48 nM | 0.00106 s⁻¹ | 717000 M⁻¹ s⁻¹ | 11 min | B4 |
| 56 RU | 1.58 nM | 0.00073 s⁻¹ | 462000 M⁻¹ s⁻¹ | 16 min | B5 |
| 78 RU | 6.8 nM | 0.00116 s⁻¹ | 171000 M⁻¹ s⁻¹ | 9.9 min | B6 |

biological target: T4, European Hornbeam (Car b 1 isoform 2, …); test: SPR, mAb captured via anti-hFc, 25 C
Method: as §1

| 100 nM Analyte Bound (RU) | Kd | koff | kon | t½ | binding result | Binder |
| --- | --- | --- | --- | --- | --- | --- |
| 157 RU | 1.58 nM | 0.0032 s⁻¹ | 2.03e+06 M⁻¹ s⁻¹ | 3.6 min |  | B1 |
| 153 RU | 5.56 nM | 0.00561 s⁻¹ | 1.01e+06 M⁻¹ s⁻¹ | 2.1 min |  | B2 |
| 2 RU |  |  |  |  | no binding (tested: 100 nM) | B3 |
| 93 RU | 37.8 nM | 0.0404 s⁻¹ | 1.07e+06 M⁻¹ s⁻¹ | 0.3 min |  | B4 |
| 114 RU | 2.48 nM | 0.00241 s⁻¹ | 971000 M⁻¹ s⁻¹ | 4.8 min |  | B5 |
| 42 RU | 98.9 nM | 0.00577 s⁻¹ | 58400 M⁻¹ s⁻¹ | 2 min |  | B6 |

biological target: T5, Apple (Mal d 1, MyBiosource, Cat …); test: SPR, mAb captured via anti-hFc, 25 C
Method: as §1

| 100 nM Analyte Bound (RU) | binding result | Binder |
| --- | --- | --- |
| 0 RU | no binding (tested: 100 nM) | B1 |
| 2 RU | no binding (tested: 100 nM) | B2 |
| 0 RU | no binding (tested: 100 nM) | B3 |
| 0 RU | no binding (tested: 100 nM) | B4 |
| 1 RU | no binding (tested: 100 nM) | B5 |
| 0 RU | no binding (tested: 100 nM) | B6 |

Biological target: T3, CHO produced recombinant Bet v 1 …
Test: SPR, mAb captured via anti-hFc, 25 C
Method: as §2

| 100 nM natural Bet v 1- MMH Bound (RU) | binding result | Kd | koff | kon | t½ | Binder |
| --- | --- | --- | --- | --- | --- | --- |
| 1 RU | no binding (tested: 100 nM) |  |  |  |  | B1 |
| 46 RU |  | 43.8 nM | 0.0215 s⁻¹ | 490000 M⁻¹ s⁻¹ | 0.5 min | B2 |
| 76 RU |  | 1.03 nM | 0.000281 s⁻¹ | 272000 M⁻¹ s⁻¹ | 41 min | B3 |
| 61 RU |  | 0.735 nM | 0.000287 s⁻¹ | 390000 M⁻¹ s⁻¹ | 40 min | B4 |
| 46 RU |  | 0.804 nM | 0.00023 s⁻¹ | 286000 M⁻¹ s⁻¹ | 50 min | B5 |
| 63 RU |  | 2.9 nM | 0.000319 s⁻¹ | 110000 M⁻¹ s⁻¹ | 36 min | B6 |

biological target: T6, Alder (Aln g 1, MyBiosource, Cat …); test: SPR, mAb captured via anti-hFc, 25 C
Method: as §1

| 100 nM Analyte Bound (RU) | Kd | koff | kon | t½ | binding result | Binder |
| --- | --- | --- | --- | --- | --- | --- |
| 49 RU | 105 nM | 0.0278 s⁻¹ | 264000 M⁻¹ s⁻¹ | 0.4 min |  | B1 |
| 139 RU | 3.94 nM | 0.00087 s⁻¹ | 221000 M⁻¹ s⁻¹ | 13 min |  | B2 |
| 8 RU |  |  |  |  | no binding (tested: 100 nM) | B3 |
| 3 RU |  |  |  |  | no binding (tested: 100 nM) | B4 |
| 0 RU |  |  |  |  | no binding (tested: 100 nM) | B5 |
| 9 RU | 69.2 nM | 0.00643 s⁻¹ | 92900 M⁻¹ s⁻¹ | 1.8 min |  | B6 |
